The MegaScale stability set (Tsuboyama et al. 2023)

B1: EEHEE_rd3_1049 (parent)
chain: TTVKLGDIKVTFDNPEKAKKYAQKLAKIYQLTVHVHGDTIHVK

Variants of: B1
Test: folding stability dG (cDNA display proteolysis); higher = more stable
Details: PBS, room temperature

Point of comparison: TTVKLGDIKVTFDNPEKAKKYAQKLAKIYTLTVHVHGDTIHVK, “folding stability dG” value 1.34 kcal/mol. Against it:
- TTVKLGDIKVTFDNPEKAKKYAQKLAKIYQLCVHVHGDTIHVK — higher, 2.77 kcal/mol
- TTVKLGDIKVTFDNPEKAKKYAQKLAKIYQLIVHVHGDTIHVK — higher, 2.01 kcal/mol
- TTVKLGDIKVTFDNPEKAKKYAQKLAKIYQLEVHVHGDTIHVK — higher, 1.82 kcal/mol
- TTVKLGDIKVTFDNPEKAKKYAQKLAKIYQLDVHVHGDTIHVK — lower, 1.33 kcal/mol
- TTVKLGDIKVTFDNPEKAKKYAQKLAKIYQLKVHVHGDTIHVK — higher, 1.63 kcal/mol
- TTVKLGDIKVTFDNPEKAKKYAQKLAKIYQLHVHVHGDTIHVK — higher, 1.6 kcal/mol
- TTVKLGDIKVTFDNPEKAKKYAQKLAKIYQLFVHVHGDTIHVK — higher, 1.81 kcal/mol
- TTVKLGDIKVTFDNPEKAKKYAQKLAKIYQLLVHVHGDTIHVK — higher, 1.6 kcal/mol
- TTVKLGDIKVTFDNPEKAKKYAQKLAKIYQLAVHVHGDTIHVK — higher, 1.79 kcal/mol
- TTVKLGDIKVTFDNPEKAKKYAQKLAKIYQLGVHVHGDTIHVK — lower, 1.32 kcal/mol
- TTVKLGDIKVTFDNPEKAKKYAQKLAMIYQLTVHVHGDTIHVK — higher, 2.01 kcal/mol
- TTVKLGDIKVTFDNPEKAKKYAQKLACIYQLTVHVHGDTIHVK — higher, 2.95 kcal/mol
- TTVKLGDIKVTFDNPEKAKKYAQKLAHIYQLTVHVHGDTIHVK — higher, 1.71 kcal/mol
- TTVKLGDIKVTFDNPEKAKKYAQKLAVIYQLTVHVHGDTIHVK — higher, 1.61 kcal/mol
- TTVKLGDIKVTFDNPEKAKKYAQKLANIYQLTVHVHGDTIHVK — higher, 1.65 kcal/mol
- TTVKLGDIKVTFDNPEKAKKYAQKLARIYQLTVHVHGDTIHVK — higher, 2.27 kcal/mol
- TTVKLGDIKVTFDNPEKAKKYAQKLAAIYQLTVHVHGDTIHVK — higher, 2.03 kcal/mol
- TTVKLGDIKVTFDNPEKAKKYAQKLAQIYQLTVHVHGDTIHVK — higher, 1.94 kcal/mol
- TTVKLGDIKVTFDNPEKAKKYAQKLADIYQLTVHVHGDTIHVK — higher, 1.79 kcal/mol
- TTVKLGDIKVTFDNPEKAKKYAQKLALIYQLTVHVHGDTIHVK — higher, 2.1 kcal/mol
- TTVKLGDIKVTFDNPEKAKKYAQKLATIYQLTVHVHGDTIHVK — higher, 1.75 kcal/mol
- TTVKLGDIKVTFDNPEKAKKYAQKLAYIYQLTVHVHGDTIHVK — higher, 2.13 kcal/mol
- TTVKLGDIKVTFDNPEKAKKYAQKLAIIYQLTVHVHGDTIHVK — higher, 1.79 kcal/mol
- TTVKLGDIKVTFDNPEKAKKYAQKLAPIYQLTVHVHGDTIHVK — lower, -0.326 kcal/mol
- TTVKLGDIKVTFDNPEKAKKYAQKLAGIYQLTVHVHGDTIHVK — higher, 1.37 kcal/mol
- TTVKLGDIKVTFDNPEKAKKYAQKLAWIYQLTVHVHGDTIHVK — higher, 2.05 kcal/mol
- TTVKLGDIKVTFDNPEKAKKYAQKLAEIYQLTVHVHGDTIHVK — higher, 2.04 kcal/mol
- TTVKLGDIKVTFDNPEKAKKYAQKLAFIYQLTVHVHGDTIHVK — higher, 2.1 kcal/mol
- TTVKLGDIKVTFDNPEKAKKYAQKLASIYQLTVHVHGDTIHVK — higher, 1.83 kcal/mol
- TTVKLGDIKVTFDNPEKAKKYAQKLAKWYQLTVHVHGDTIHVK — higher, 2.15 kcal/mol
- TTVKLGDIKVTFDNPEKAKKYAQKLAKYYQLTVHVHGDTIHVK — higher, 2.14 kcal/mol
- TTVKLGDIKVTFDNPEKAKKYAQKLAKPYQLTVHVHGDTIHVK — lower, -0.832 kcal/mol
- TTVKLGDIKVTFDNPEKAKKYAQKLAKHYQLTVHVHGDTIHVK — higher, 1.64 kcal/mol
- TTVKLGDIKVTFDNPEKAKKYAQKLAKAYQLTVHVHGDTIHVK — higher, 1.65 kcal/mol
- TTVKLGDIKVTFDNPEKAKKYAQKLAKCYQLTVHVHGDTIHVK — higher, 2.92 kcal/mol
- TTVKLGDIKVTFDNPEKAKKYAQKLAKMYQLTVHVHGDTIHVK — higher, 2.36 kcal/mol
- TTVKLGDIKVTFDNPEKAKKYAQKLAKEYQLTVHVHGDTIHVK — higher, 1.47 kcal/mol
- TTVKLGDIKVTFDNPEKAKKYAQKLAKRYQLTVHVHGDTIHVK — higher, 2.4 kcal/mol
- TTVKLGDIKVTFDNPEKAKKYAQKLAKLYQLTVHVHGDTIHVK — higher, 2.33 kcal/mol
- TTVKLGDIKVTFDNPEKAKKYAQKLAKDYQLTVHVHGDTIHVK — lower, 1.08 kcal/mol
- TTVKLGDIKVTFDNPEKAKKYAQKLAKVYQLTVHVHGDTIHVK — higher, 1.56 kcal/mol
- TTVKLGDIKVTFDNPEKAKKYAQKLAKGYQLTVHVHGDTIHVK — lower, 0.349 kcal/mol
- TTVKLGDIKVTFDNPEKAKKYAQKLAKKYQLTVHVHGDTIHVK — higher, 2.48 kcal/mol
- TTVKLGDIKVTFDNPEKAKKYAQKLAKQYQLTVHVHGDTIHVK — higher, 1.88 kcal/mol
- TTVKLGDIKVTFDNPEKAKKYAQKLAKNYQLTVHVHGDTIHVK — lower, 1.01 kcal/mol
- TTVKLGDIKVTFDNPEKAKKYAQKLAKSYQLTVHVHGDTIHVK — lower, 1.05 kcal/mol
- TTVKLGDIKVTFDNPEKAKKYAQKLAKFYQLTVHVHGDTIHVK — higher, 2.02 kcal/mol
- TTVKLGDIKVTFDNPEKAKKYAQKLAKTYQLTVHVHGDTIHVK — higher, 1.48 kcal/mol
- TTVKLGDIKVTFDNPEKAKKYAQKLAKIYKLTVHVHGDTIHVK — higher, 2.2 kcal/mol
- TTVKLGDIKVTFDNPEKAKKYAQKLAKIYRLTVHVHGDTIHVK — higher, 1.98 kcal/mol
- TTVKLGDIKVTFDNPEKAKKYAQKLAKIYFLTVHVHGDTIHVK — higher, 1.87 kcal/mol
- TTVKLGDIKVTFDNPEKAKKYAQKLAKIYNLTVHVHGDTIHVK — higher, 2.58 kcal/mol
- TTVKLGDIKVTFDNPEKAKKYAQKLAKIYYLTVHVHGDTIHVK — higher, 1.65 kcal/mol
- TTVKLGDIKVTFDNPEKAKKYAQKLAKIYVLTVHVHGDTIHVK — lower, 1.24 kcal/mol
- TTVKLGDIKVTFDNPEKAKKYAQKLAKIYALTVHVHGDTIHVK — higher, 1.89 kcal/mol
- TTVKLGDIKVTFDNPEKAKKYAQKLAKIYHLTVHVHGDTIHVK — higher, 2.42 kcal/mol
- TTVKLGDIKVTFDNPEKAKKYAQKLAKIYSLTVHVHGDTIHVK — higher, 2.06 kcal/mol
- TTVKLGDIKVTFDNPEKAKKYAQKLAKIYILTVHVHGDTIHVK — lower, 1.28 kcal/mol
- TTVKLGDIKVTFDNPEKAKKYAQKLAKIYWLTVHVHGDTIHVK — higher, 1.71 kcal/mol
- TTVKLGDIKVTFDNPEKAKKYAQKLAKIYGLTVHVHGDTIHVK — higher, 3.23 kcal/mol
- TTVKLGDIKVTFDNPEKAKKYAQKLAKIYPLTVHVHGDTIHVK — lower, 0.614 kcal/mol
- TTVKLGDIKVTFDNPEKAKKYAQKLAKIYMLTVHVHGDTIHVK — higher, 1.92 kcal/mol
- TTVKLGDIKVTFDNPEKAKKYAQKLAKIYELTVHVHGDTIHVK — higher, 1.62 kcal/mol
- TTVKLGDIKVTFDNPEKAKKYAQKLAKIYDLTVHVHGDTIHVK — higher, 2.08 kcal/mol
- TTVKLGDIKVTFDNPEKAKKYAQKLAKIYLLTVHVHGDTIHVK — higher, 1.48 kcal/mol
- TTVKLGDIKVTFDNPEKAKKYAQKLAKIYQVTVHVHGDTIHVK — lower, 1.08 kcal/mol
- TTVKLGDIKVTFDNPEKAKKYAQKLAKIYQSTVHVHGDTIHVK — lower, 0.893 kcal/mol
- TTVKLGDIKVTFDNPEKAKKYAQKLAKIYQPTVHVHGDTIHVK — lower, -0.519 kcal/mol
- TTVKLGDIKVTFDNPEKAKKYAQKLAKIYQHTVHVHGDTIHVK — lower, 0.811 kcal/mol
- TTVKLGDIKVTFDNPEKAKKYAQKLAKIYQWTVHVHGDTIHVK — lower, 1.26 kcal/mol
- TTVKLGDIKVTFDNPEKAKKYAQKLAKIYQQTVHVHGDTIHVK — lower, 0.409 kcal/mol
- TTVKLGDIKVTFDNPEKAKKYAQKLAKIYQITVHVHGDTIHVK — lower, 1.05 kcal/mol
- TTVKLGDIKVTFDNPEKAKKYAQKLAKIYQETVHVHGDTIHVK — lower, 0.002 kcal/mol
- TTVKLGDIKVTFDNPEKAKKYAQKLAKIYQYTVHVHGDTIHVK — lower, 1.31 kcal/mol
- TTVKLGDIKVTFDNPEKAKKYAQKLAKIYQGTVHVHGDTIHVK — higher, 1.66 kcal/mol
- TTVKLGDIKVTFDNPEKAKKYAQKLAKIYQDTVHVHGDTIHVK — lower, -0.096 kcal/mol
- TTVKLGDIKVTFDNPEKAKKYAQKLAKIYQATVHVHGDTIHVK — higher, 1.56 kcal/mol
- TTVKLGDIKVTFDNPEKAKKYAQKLAKIYQTTVHVHGDTIHVK — lower, 1.06 kcal/mol
- TTVKLGDIKVTFDNPEKAKKYAQKLAKIYQFTVHVHGDTIHVK — higher, 1.49 kcal/mol
- TTVKLGDIKVTFDNPEKAKKYAQKLAKIYQNTVHVHGDTIHVK — lower, 0.271 kcal/mol
- TTVKLGDIKVTFDNPEKAKKYAQKLAKIYQRTVHVHGDTIHVK — lower, 0.613 kcal/mol
- TTVKLGDIKVTFDNPEKAKKYAQKLAKIYQKTVHVHGDTIHVK — lower, 0.541 kcal/mol
- TTVKLGDIKVTFDNPEKAKKYAQKLAKIYQMTVHVHGDTIHVK — higher, 2.18 kcal/mol
- TTVKLGDIKVTFDNPEKAKKYAQKLIKIYQLTVHVHGDTIHVK — lower, 1.09 kcal/mol
- TTVKLGDIKVTFDNPEKAKKYAQKLRKIYQLTVHVHGDTIHVK — higher, 1.37 kcal/mol
- TTVKLGDIKVTFDNPEKAKKYAQKLNKIYQLTVHVHGDTIHVK — lower, 0.427 kcal/mol
- TTVKLGDIKVTFDNPEKAKKYAQKLKKIYQLTVHVHGDTIHVK — lower, 1.02 kcal/mol
- TTVKLGDIKVTFDNPEKAKKYAQKLQKIYQLTVHVHGDTIHVK — lower, 0.896 kcal/mol
- TTVKLGDIKVTFDNPEKAKKYAQKLTKIYQLTVHVHGDTIHVK — lower, 0.662 kcal/mol
- TTVKLGDIKVTFDNPEKAKKYAQKLPKIYQLTVHVHGDTIHVK — lower, -0.282 kcal/mol
- TTVKLGDIKVTFDNPEKAKKYAQKLLKIYQLTVHVHGDTIHVK — lower, 1.16 kcal/mol
- TTVKLGDIKVTFDNPEKAKKYAQKLVKIYQLTVHVHGDTIHVK — lower, 0.862 kcal/mol
- TTVKLGDIKVTFDNPEKAKKYAQKLYKIYQLTVHVHGDTIHVK — lower, 1.01 kcal/mol
- TTVKLGDIKVTFDNPEKAKKYAQKLFKIYQLTVHVHGDTIHVK — lower, 1.11 kcal/mol
- TTVKLGDIKVTFDNPEKAKKYAQKLSKIYQLTVHVHGDTIHVK — lower, 1.23 kcal/mol
- TTVKLGDIKVTFDNPEKAKKYAQKLGKIYQLTVHVHGDTIHVK — lower, 0.898 kcal/mol
- TTVKLGDIKVTFDNPEKAKKYAQKLWKIYQLTVHVHGDTIHVK — lower, 1.2 kcal/mol
- TTVKLGDIKVTFDNPEKAKKYAQKLHKIYQLTVHVHGDTIHVK — lower, 0.547 kcal/mol
- TTVKLGDIKVTFDNPEKAKKYAQKLMKIYQLTVHVHGDTIHVK — lower, 1.23 kcal/mol
- TTVKLGDIKVTFDNPEKAKKYAQKLAKIVQLTVHVHGDTIHVK — lower, 0.558 kcal/mol
- TTVKLGDIKVTFDNPEKAKKYAQKLAKIEQLTVHVHGDTIHVK — lower, 0.087 kcal/mol
- TTVKLGDIKVTFDNPEKAKKYAQKLAKIHQLTVHVHGDTIHVK — lower, 1.31 kcal/mol
- TTVKLGDIKVTFDNPEKAKKYAQKLAKIQQLTVHVHGDTIHVK — lower, 0.374 kcal/mol
- TTVKLGDIKVTFDNPEKAKKYAQKLAKIDQLTVHVHGDTIHVK — lower, -0.065 kcal/mol
- TTVKLGDIKVTFDNPEKAKKYAQKLAKIIQLTVHVHGDTIHVK — lower, 0.716 kcal/mol
- TTVKLGDIKVTFDNPEKAKKYAQKLAKIPQLTVHVHGDTIHVK — lower, 0.516 kcal/mol
- TTVKLGDIKVTFDNPEKAKKYAQKLAKIGQLTVHVHGDTIHVK — lower, 0.581 kcal/mol
- TTVKLGDIKVTFDNPEKAKKYAQKLAKIAQLTVHVHGDTIHVK — lower, 0.547 kcal/mol
- TTVKLGDIKVTFDNPEKAKKYAQKLAKINQLTVHVHGDTIHVK — lower, 0.582 kcal/mol
- TTVKLGDIKVTFDNPEKAKKYAQKLAKILQLTVHVHGDTIHVK — higher, 1.87 kcal/mol
- TTVKLGDIKVTFDNPEKAKKYAQKLAKIWQLTVHVHGDTIHVK — higher, 1.67 kcal/mol
- TTVKLGDIKVTFDNPEKAKKYAQKLAKIFQLTVHVHGDTIHVK — higher, 2.11 kcal/mol
- TTVKLGDIKVTFDNPEKAKKYAQKLAKISQLTVHVHGDTIHVK — lower, 0.482 kcal/mol
- TTVKLGDIKVTFDNPEKAKKYAQKLAKITQLTVHVHGDTIHVK — lower, 0.658 kcal/mol
- TTVKLGDIKVTFDNPEKAKKYAQKLAKIKQLTVHVHGDTIHVK — lower, 0.669 kcal/mol
- TTVKLGDIKVTFDNPEKAKKYAQKLAKIMQLTVHVHGDTIHVK — lower, 1.26 kcal/mol
- TTVKLGDIKVTFDNPEKAKKYAQKLAKIRQLTVHVHGDTIHVK — lower, 0.806 kcal/mol
